{
  "source": "patent US20220298218A1",
  "about": "(ANTAG THERAPEUTICS, published 2022)",
  "note": "Where no end group is shown, it is not given here. [ ]: non-standard residue; d: D form. The star is where a group is joined. C16 diacid = O=C(O)CCCCCCCCCCCCCCC(=O)*; Nle = CCCC[C@H](N)C(=O)O; Aib = CC(C)(N)C(=O)O",
  "data": [
    {"molecular_target": "T1, human GIP receptor (human, UniProt P48546 22-466)", "T1 sequence (looked up)": "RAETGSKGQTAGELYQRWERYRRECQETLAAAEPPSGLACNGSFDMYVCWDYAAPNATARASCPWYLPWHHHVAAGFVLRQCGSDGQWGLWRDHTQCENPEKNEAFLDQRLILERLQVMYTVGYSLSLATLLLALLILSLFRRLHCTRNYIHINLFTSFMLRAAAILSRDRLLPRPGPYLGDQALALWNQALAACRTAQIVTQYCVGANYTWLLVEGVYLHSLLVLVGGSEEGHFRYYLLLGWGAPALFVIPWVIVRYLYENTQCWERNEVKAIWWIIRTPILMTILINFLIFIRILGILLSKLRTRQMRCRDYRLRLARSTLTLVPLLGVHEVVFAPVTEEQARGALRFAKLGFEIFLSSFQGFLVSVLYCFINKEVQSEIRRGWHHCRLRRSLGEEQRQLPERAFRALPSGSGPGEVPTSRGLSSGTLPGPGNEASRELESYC", "test": "cell-based or functional assay", "units": {"cAMP agonism % Emax": "%", "cAMP antagonism": "nM", "cAMP antagonism % inhib": "%"}, "values": [
      {"binder": "EGTFISDYSIALDKIKQQDFVNWLLAQKPSSGAPPPS (Nle at 14; K18: C16-diacid; C-term COOH)", "note": "[AT619]", "cAMP agonism % Emax": 0, "cAMP antagonism": 2.19, "cAMP antagonism % inhib": 87, "cAMP antagonism pIC50": 8.7},
      {"binder": "EGTFISDYSIAMDKIK(C16 diacid)QQDFVEWLLAQKPSSGAPPPS-OH (N-terminus assumed; SMILES CC[C@H](C)[C@H](NC(=O)[C@H](CO)NC(=O)[C@H](Cc1ccc(O)cc1)NC(=O)[C@H](CC(=O)O)NC(=O)[C@H](CO)NC(=O)[C@@H](NC(=O)[C@H](Cc1ccccc1)NC(=O)[C@@H](NC(=O)CNC(=O)[C@@H](N)CCC(=O)O)[C@@H](C)O)[C@@H](C)CC)C(=O)N[C@@H](C)C(=O)N[C@@H](CCSC)C(=O)N[C@@H](CC(=O)O)C(=O)N[C@@H](CCCCN)C(=O)N[C@H](C(=O)N[C@@H](CCCCNC(=O)CCCCCCCCCCCCCCC(=O)O)C(=O)N[C@@H](CCC(N)=O)C(=O)N[C@@H](CCC(N)=O)C(=O)N[C@@H](CC(=O)O)C(=O)N[C@@H](Cc1ccccc1)C(=O)N[C@H](C(=O)N[C@@H](CCC(=O)O)C(=O)N[C@@H](Cc1c[nH]c2ccccc12)C(=O)N[C@@H](CC(C)C)C(=O)N[C@@H](CC(C)C)C(=O)N[C@@H](C)C(=O)N[C@@H](CCC(N)=O)C(=O)N[C@@H](CCCCN)C(=O)N1CCC[C@H]1C(=O)N[C@@H](CO)C(=O)N[C@@H](CO)C(=O)NCC(=O)N[C@@H](C)C(=O)N1CCC[C@H]1C(=O)N1CCC[C@H]1C(=O)N1CCC[C@H]1C(=O)N[C@@H](CO)C(=O)O)C(C)C)[C@@H](C)CC)", "note": "[AT617]", "cAMP agonism % Emax": 0, "cAMP antagonism": 0.794, "cAMP antagonism % inhib": 91, "cAMP antagonism pIC50": 9.1},
      {"binder": "EGTFISEYSI[Aib]MEKIK(C16 diacid)QQDFVEWLLAQKPSSGAPPPS-OH (N-terminus assumed; SMILES CC[C@H](C)[C@H](NC(=O)[C@H](CCCCN)NC(=O)[C@H](CCC(=O)O)NC(=O)[C@H](CCSC)NC(=O)C(C)(C)NC(=O)[C@@H](NC(=O)[C@H](CO)NC(=O)[C@H](Cc1ccc(O)cc1)NC(=O)[C@H](CCC(=O)O)NC(=O)[C@H](CO)NC(=O)[C@@H](NC(=O)[C@H](Cc1ccccc1)NC(=O)[C@@H](NC(=O)CNC(=O)[C@@H](N)CCC(=O)O)[C@@H](C)O)[C@@H](C)CC)[C@@H](C)CC)C(=O)N[C@@H](CCCCNC(=O)CCCCCCCCCCCCCCC(=O)O)C(=O)N[C@@H](CCC(N)=O)C(=O)N[C@@H](CCC(N)=O)C(=O)N[C@@H](CC(=O)O)C(=O)N[C@@H](Cc1ccccc1)C(=O)N[C@H](C(=O)N[C@@H](CCC(=O)O)C(=O)N[C@@H](Cc1c[nH]c2ccccc12)C(=O)N[C@@H](CC(C)C)C(=O)N[C@@H](CC(C)C)C(=O)N[C@@H](C)C(=O)N[C@@H](CCC(N)=O)C(=O)N[C@@H](CCCCN)C(=O)N1CCC[C@H]1C(=O)N[C@@H](CO)C(=O)N[C@@H](CO)C(=O)NCC(=O)N[C@@H](C)C(=O)N1CCC[C@H]1C(=O)N1CCC[C@H]1C(=O)N1CCC[C@H]1C(=O)N[C@@H](CO)C(=O)O)C(C)C)", "note": "[AT616]", "cAMP agonism % Emax": 0, "cAMP antagonism": 0.473, "cAMP antagonism % inhib": 100, "cAMP antagonism pIC50": 9.3},
      {"binder": "EGTFISDYSIALDKIK(C16 diacid)QQDFVNWLLAQKPSSGAPPPS-OH (N-terminus assumed; SMILES CC[C@H](C)[C@H](NC(=O)[C@H](CO)NC(=O)[C@H](Cc1ccc(O)cc1)NC(=O)[C@H](CC(=O)O)NC(=O)[C@H](CO)NC(=O)[C@@H](NC(=O)[C@H](Cc1ccccc1)NC(=O)[C@@H](NC(=O)CNC(=O)[C@@H](N)CCC(=O)O)[C@@H](C)O)[C@@H](C)CC)C(=O)N[C@@H](C)C(=O)N[C@@H](CC(C)C)C(=O)N[C@@H](CC(=O)O)C(=O)N[C@@H](CCCCN)C(=O)N[C@H](C(=O)N[C@@H](CCCCNC(=O)CCCCCCCCCCCCCCC(=O)O)C(=O)N[C@@H](CCC(N)=O)C(=O)N[C@@H](CCC(N)=O)C(=O)N[C@@H](CC(=O)O)C(=O)N[C@@H](Cc1ccccc1)C(=O)N[C@H](C(=O)N[C@@H](CC(N)=O)C(=O)N[C@@H](Cc1c[nH]c2ccccc12)C(=O)N[C@@H](CC(C)C)C(=O)N[C@@H](CC(C)C)C(=O)N[C@@H](C)C(=O)N[C@@H](CCC(N)=O)C(=O)N[C@@H](CCCCN)C(=O)N1CCC[C@H]1C(=O)N[C@@H](CO)C(=O)N[C@@H](CO)C(=O)NCC(=O)N[C@@H](C)C(=O)N1CCC[C@H]1C(=O)N1CCC[C@H]1C(=O)N1CCC[C@H]1C(=O)N[C@@H](CO)C(=O)O)C(C)C)[C@@H](C)CC)", "note": "[AT618]", "cAMP agonism % Emax": 0, "cAMP antagonism": 3.98, "cAMP antagonism % inhib": 82, "cAMP antagonism pIC50": 8.4},
      {"binder": "EGTFISEYS[Aib]A[Nle]EKIK(C16 diacid)QQDFVEWLLAQKPSSGAPPPS-OH (N-terminus assumed; SMILES CCCC[C@H](NC(=O)[C@H](C)NC(=O)C(C)(C)NC(=O)[C@H](CO)NC(=O)[C@H](Cc1ccc(O)cc1)NC(=O)[C@H](CCC(=O)O)NC(=O)[C@H](CO)NC(=O)[C@@H](NC(=O)[C@H](Cc1ccccc1)NC(=O)[C@@H](NC(=O)CNC(=O)[C@@H](N)CCC(=O)O)[C@@H](C)O)[C@@H](C)CC)C(=O)N[C@@H](CCC(=O)O)C(=O)N[C@@H](CCCCN)C(=O)N[C@H](C(=O)N[C@@H](CCCCNC(=O)CCCCCCCCCCCCCCC(=O)O)C(=O)N[C@@H](CCC(N)=O)C(=O)N[C@@H](CCC(N)=O)C(=O)N[C@@H](CC(=O)O)C(=O)N[C@@H](Cc1ccccc1)C(=O)N[C@H](C(=O)N[C@@H](CCC(=O)O)C(=O)N[C@@H](Cc1c[nH]c2ccccc12)C(=O)N[C@@H](CC(C)C)C(=O)N[C@@H](CC(C)C)C(=O)N[C@@H](C)C(=O)N[C@@H](CCC(N)=O)C(=O)N[C@@H](CCCCN)C(=O)N1CCC[C@H]1C(=O)N[C@@H](CO)C(=O)N[C@@H](CO)C(=O)NCC(=O)N[C@@H](C)C(=O)N1CCC[C@H]1C(=O)N1CCC[C@H]1C(=O)N1CCC[C@H]1C(=O)N[C@@H](CO)C(=O)O)C(C)C)[C@@H](C)CC)", "note": "[AT615]", "cAMP agonism % Emax": 0, "cAMP antagonism": 7.94, "cAMP antagonism % inhib": 97, "cAMP antagonism pIC50": 8.1},
      {"binder": "EGTFISDYSIAEDKIK(C16 diacid)QQDFVNWLLAQKPSSGAPPPS-OH (N-terminus assumed; SMILES CC[C@H](C)[C@H](NC(=O)[C@H](CO)NC(=O)[C@H](Cc1ccc(O)cc1)NC(=O)[C@H](CC(=O)O)NC(=O)[C@H](CO)NC(=O)[C@@H](NC(=O)[C@H](Cc1ccccc1)NC(=O)[C@@H](NC(=O)CNC(=O)[C@@H](N)CCC(=O)O)[C@@H](C)O)[C@@H](C)CC)C(=O)N[C@@H](C)C(=O)N[C@@H](CCC(=O)O)C(=O)N[C@@H](CC(=O)O)C(=O)N[C@@H](CCCCN)C(=O)N[C@H](C(=O)N[C@@H](CCCCNC(=O)CCCCCCCCCCCCCCC(=O)O)C(=O)N[C@@H](CCC(N)=O)C(=O)N[C@@H](CCC(N)=O)C(=O)N[C@@H](CC(=O)O)C(=O)N[C@@H](Cc1ccccc1)C(=O)N[C@H](C(=O)N[C@@H](CC(N)=O)C(=O)N[C@@H](Cc1c[nH]c2ccccc12)C(=O)N[C@@H](CC(C)C)C(=O)N[C@@H](CC(C)C)C(=O)N[C@@H](C)C(=O)N[C@@H](CCC(N)=O)C(=O)N[C@@H](CCCCN)C(=O)N1CCC[C@H]1C(=O)N[C@@H](CO)C(=O)N[C@@H](CO)C(=O)NCC(=O)N[C@@H](C)C(=O)N1CCC[C@H]1C(=O)N1CCC[C@H]1C(=O)N1CCC[C@H]1C(=O)N[C@@H](CO)C(=O)O)C(C)C)[C@@H](C)CC)", "note": "[AT620]", "cAMP agonism % Emax": 0, "cAMP antagonism": 31.6, "cAMP antagonism % inhib": 83, "cAMP antagonism pIC50": 7.5},
      {"binder": "EGTFISEYSIAMEKIK(C16 diacid)QQDFVEWLLAQKPSSGAPPPS-OH (N-terminus assumed; SMILES CC[C@H](C)[C@H](NC(=O)[C@H](CO)NC(=O)[C@H](Cc1ccc(O)cc1)NC(=O)[C@H](CCC(=O)O)NC(=O)[C@H](CO)NC(=O)[C@@H](NC(=O)[C@H](Cc1ccccc1)NC(=O)[C@@H](NC(=O)CNC(=O)[C@@H](N)CCC(=O)O)[C@@H](C)O)[C@@H](C)CC)C(=O)N[C@@H](C)C(=O)N[C@@H](CCSC)C(=O)N[C@@H](CCC(=O)O)C(=O)N[C@@H](CCCCN)C(=O)N[C@H](C(=O)N[C@@H](CCCCNC(=O)CCCCCCCCCCCCCCC(=O)O)C(=O)N[C@@H](CCC(N)=O)C(=O)N[C@@H](CCC(N)=O)C(=O)N[C@@H](CC(=O)O)C(=O)N[C@@H](Cc1ccccc1)C(=O)N[C@H](C(=O)N[C@@H](CCC(=O)O)C(=O)N[C@@H](Cc1c[nH]c2ccccc12)C(=O)N[C@@H](CC(C)C)C(=O)N[C@@H](CC(C)C)C(=O)N[C@@H](C)C(=O)N[C@@H](CCC(N)=O)C(=O)N[C@@H](CCCCN)C(=O)N1CCC[C@H]1C(=O)N[C@@H](CO)C(=O)N[C@@H](CO)C(=O)NCC(=O)N[C@@H](C)C(=O)N1CCC[C@H]1C(=O)N1CCC[C@H]1C(=O)N1CCC[C@H]1C(=O)N[C@@H](CO)C(=O)O)C(C)C)[C@@H](C)CC)", "note": "[AT614]", "cAMP agonism % Emax": 0, "cAMP antagonism": 1.08, "cAMP antagonism % inhib": 100, "cAMP antagonism pIC50": 9}
    ]}
  ]
}
